Data as given in paper PMC9169696 (ACS applied materials & interfaces, 2021).
Square brackets hold non-standard residues; d marks the D form. Ends that are not written are not given here.

B1: HLT2 peptide gel (peptide)
peptide: VLTKVKTKV[code p]PTKVEVKVLV-NH2
B2: fluorescein-labeled Fet-A (natural protein, bovine, UniProt P12763 19-359, looked up)
chain: IPLDPVAGYKEPACDDPDTEQAALAAVDYINKHLPRGYKHTLNQIDSVKVWPRRPTGEVYDIEIDTLETTCHVLDPTPLANCSVRQQTQHAVEGDCDIHVLKQDGQFSVLFTKCDSSPDSAEDVRKLCPDCPLLAPLNDSRVVHAVEVALATFNAESNGSYLQLVEISRAQFVPLPVSVSVEFAVAATDCIAKEVVDPTKCNLLAEKQYGFCKGSVIQKALGGEDVRVTCTLFQTQPVIPQPQPDGAEAEAPSAVPDAAGPTPSAAGPPVASVVVGPSVVAVPLPLHRAHYDLRHTFSGVASVESSSGEAFHVGKTPIVGQPSIPGGPVRLCPGRIRYFKI
modifications: fluorescein (from NHS-fluorescein; sites not stated)
B3: fluorescein-labeled VN (natural protein, human, UniProt P04004 20-478, looked up)
chain: DQESCKGRCTEGFNVDKKCQCDELCSYYQSCCTDYTAECKPQVTRGDVFTMPEDEYTVYDDGEEKNNATVHEQVGGPSLTSDLQAQSKGNPEQTPVLKPEEEAPAPEVGASKPEGIDSRPETLHPGRPQPPAEEELCSGKPFDAFTDLKNGSLFAFRGQYCYELDEKAVRPGYPKLIRDVWGIEGPIDAAFTRINCQGKTYLFKGSQYWRFEDGVLDPDYPRNISDGFDGIPDNVDAALALPAHSYSGRERVYFFKGKQYWEYQFQHQPSQEECEGSSLSAVFEHFAMMQRDSWEDIFELLFWGRTSAGTRQPQFISRDWHGVPGQVDAAMAGRIYISGMAPRPSLAKKQRFRHRNRKGYRSQRGHSRGRNQNSRRPSRATWLSLFSSEESNLGANNYDDYRMDWLVPATCEPIQSVFFFSGDKYYRVNLRTRRVDTVDPPYPRSIAQYWLGCPAPGHL
modifications: fluorescein (from NHS-fluorescein; sites not stated)

Experiments:
[1] = biological target: BSA fluorescein isothiocyanate conjugate (bovine, UniProt P02769 25-607, fluorescein isothiocyanate conjugate (sites not given)); assay: light absorption and fluorescence imaging of the gel
bovine serum albumin = bovine serum albumin (bovine, UniProt P02769 25-607); assay: affinity purification with mass spectrometry
HLT2 peptide gel = biological target: B1; assay: depletion from the supernatant

bovine serum albumin, sequence (P02769 25-607): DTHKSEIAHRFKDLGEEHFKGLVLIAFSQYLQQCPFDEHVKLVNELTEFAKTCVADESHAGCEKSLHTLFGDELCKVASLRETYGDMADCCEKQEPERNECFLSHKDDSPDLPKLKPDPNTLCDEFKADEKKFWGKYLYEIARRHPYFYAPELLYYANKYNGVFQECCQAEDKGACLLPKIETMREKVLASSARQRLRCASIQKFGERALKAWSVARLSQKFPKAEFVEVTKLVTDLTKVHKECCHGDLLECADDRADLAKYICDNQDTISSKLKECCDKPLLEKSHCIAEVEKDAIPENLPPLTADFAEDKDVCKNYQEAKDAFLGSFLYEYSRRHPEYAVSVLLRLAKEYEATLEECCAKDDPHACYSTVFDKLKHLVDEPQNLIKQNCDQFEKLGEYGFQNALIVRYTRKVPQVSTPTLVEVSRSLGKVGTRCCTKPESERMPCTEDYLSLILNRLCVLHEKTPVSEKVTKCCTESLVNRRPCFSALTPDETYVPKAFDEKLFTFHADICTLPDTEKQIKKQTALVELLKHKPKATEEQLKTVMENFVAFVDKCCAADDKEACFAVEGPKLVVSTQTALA
BSA fluorescein isothiocyanate conjugate, sequence (P02769 25-607): as above

binding result [1]	binding result (bovine serum albumin)	concentration adsorbed with respect to total gel volume (HLT2 peptide gel) [mg/mL]	percent of the added protein adsorbed (HLT2 peptide gel) [%]	Binder
binds	binds	–	–	B1
–	–	6.8	85	B2
–	–	0.1	87	B3
